Laboratory results as given in patent US20120121591A1 (priority 2009, published 2012).

Legend:
[1] = biological target: human Kv1.3 (Homo sapiens, UniProt P22001); test: cell-based or functional assay
[2] = biological target: human Kv1.1 (Homo sapiens, UniProt Q09470); test: cell-based or functional assay
human Kv1.1, sequence (Q09470 whole entry): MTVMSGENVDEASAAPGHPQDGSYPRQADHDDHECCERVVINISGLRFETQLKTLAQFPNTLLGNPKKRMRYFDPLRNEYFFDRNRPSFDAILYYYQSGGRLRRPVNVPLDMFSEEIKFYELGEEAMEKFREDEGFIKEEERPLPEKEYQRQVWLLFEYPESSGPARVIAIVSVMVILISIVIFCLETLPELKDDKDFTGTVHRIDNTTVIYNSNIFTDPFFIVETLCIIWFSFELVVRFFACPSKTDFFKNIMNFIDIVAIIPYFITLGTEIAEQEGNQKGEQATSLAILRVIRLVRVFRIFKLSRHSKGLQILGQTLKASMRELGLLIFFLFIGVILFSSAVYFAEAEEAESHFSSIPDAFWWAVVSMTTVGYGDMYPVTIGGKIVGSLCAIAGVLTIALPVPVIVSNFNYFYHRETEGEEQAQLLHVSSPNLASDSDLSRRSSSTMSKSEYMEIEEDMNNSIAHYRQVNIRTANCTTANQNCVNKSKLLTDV

human Kv1.3, sequence (P22001 whole entry): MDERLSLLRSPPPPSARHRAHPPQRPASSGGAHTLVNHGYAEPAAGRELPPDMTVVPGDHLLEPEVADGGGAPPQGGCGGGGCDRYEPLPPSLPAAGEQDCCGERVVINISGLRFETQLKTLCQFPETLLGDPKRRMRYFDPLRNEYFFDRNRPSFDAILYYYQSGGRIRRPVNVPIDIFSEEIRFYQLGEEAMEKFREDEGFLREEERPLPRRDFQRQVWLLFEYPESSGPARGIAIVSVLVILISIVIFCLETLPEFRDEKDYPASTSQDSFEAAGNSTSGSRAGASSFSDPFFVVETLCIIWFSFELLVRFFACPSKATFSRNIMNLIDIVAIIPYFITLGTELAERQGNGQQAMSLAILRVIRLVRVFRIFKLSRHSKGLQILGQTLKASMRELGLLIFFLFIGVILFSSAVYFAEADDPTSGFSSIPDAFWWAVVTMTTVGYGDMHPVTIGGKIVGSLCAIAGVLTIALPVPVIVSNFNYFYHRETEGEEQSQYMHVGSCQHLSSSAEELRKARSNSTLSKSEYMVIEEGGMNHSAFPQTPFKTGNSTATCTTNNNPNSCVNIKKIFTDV

Substance | Kv1.3 (IWQ) IC50 [1] [nM] | WB (IFNg) IC50 [1] [nM] | WB (IL-2) IC50 [1] [nM] | Kv1.1 (IWQ) IC50 [2] [nM]
[Glu4; Lys16,29; 1-Nal26;Arg30]ShK-amide (peptide) | 0.384 | 0.598 | 0.712 | –
[Glu4; Lys16,29;Arg18,30; Nle21]ShK-amide (peptide) | 0.269 | 1.33 | 1.96 | –
[Glu4;Lys16,29;1-Nal26;Arg30;Nle21]ShK-amide (peptide) | 1.66 | 17.4 | 10.7 | 3.3
